Laboratory results reported in article PMC4403821.

Experiments:
[1] = molecular target: ORF74-ST/A (Kaposi's sarcoma-associated herpesvirus (KSHV)) (UniProt Q98146)
[2] = molecular target: ORF74-ST/A (Kaposi's sarcoma-associated herpesvirus (KSHV)) (UniProt Q98146); assay: radioligand binding; whole transfected HEK293T cells, 100 pM ^125I-CXCL10 with increasing unlabeled CXCL10, 3h at 4°C, 50 mM HEPES pH 7.4, 1 mM CaCl2, 5 mM MgCl2, 0.5% BSA; washes with 0.5 M NaCl; Ki from IC50 by Cheng and Prusoff
^125I-CXCL8 = assay: radioligand binding (125I-CXCL8 homologous competition) on intact HEK293T cells; details: point at the lowest unlabeled CXCL8 concentration, log [CXCL8] = -11 M; parent: est. 100; read off a plot

Q: For CXCL8 (ligand), which PLC activation (InsP accumulation) in HEK293T, pEC50 [1] is on record?
A: > 7

Q: Which results are given for “CXCL10 (from UniProt P02778 22-98) (ligand)”?
A: inhibition of constitutive PLC activation (InsP accumulation) in HEK293T, pEC50 [1]: 8; pKi [2]: 8.4

Q: “WT-ORF74 (from UniProt Q98146) S315A; S319A; S331A; S335A; S338A; T341A; T342A” was tested. Which percent of parent (% of specific binding of WT-ORF74) (^125I-CXCL8) did it give?
A: 3
